Test results as given in patent US20010011078A1 (University of Texas, published 2001).

What was measured:
[1] = tested on: T1, DFF40 (40-kDa subunit of DNA fragmentation factor), native human protein
T1 sequence: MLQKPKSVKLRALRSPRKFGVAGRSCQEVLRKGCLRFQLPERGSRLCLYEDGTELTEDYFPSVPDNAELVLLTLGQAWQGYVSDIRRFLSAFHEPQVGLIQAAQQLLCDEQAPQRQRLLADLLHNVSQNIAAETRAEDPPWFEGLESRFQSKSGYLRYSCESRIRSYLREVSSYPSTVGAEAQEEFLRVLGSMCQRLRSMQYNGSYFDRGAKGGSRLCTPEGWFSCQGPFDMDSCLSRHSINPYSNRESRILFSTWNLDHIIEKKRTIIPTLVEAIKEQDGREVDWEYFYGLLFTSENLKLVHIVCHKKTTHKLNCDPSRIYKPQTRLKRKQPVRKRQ

[2] = tested on: T2, DFF45 (45-kDa subunit of DNA fragmentation factor), native human protein
T2 sequence: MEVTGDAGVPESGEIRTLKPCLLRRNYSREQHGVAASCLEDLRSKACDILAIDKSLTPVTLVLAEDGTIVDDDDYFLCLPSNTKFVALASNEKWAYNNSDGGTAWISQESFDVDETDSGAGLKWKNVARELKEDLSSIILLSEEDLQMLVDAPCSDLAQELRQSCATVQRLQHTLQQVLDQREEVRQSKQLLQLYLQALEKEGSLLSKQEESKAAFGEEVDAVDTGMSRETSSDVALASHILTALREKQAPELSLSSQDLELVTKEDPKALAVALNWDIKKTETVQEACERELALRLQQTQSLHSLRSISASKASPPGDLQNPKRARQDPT

[3] = tested on: poly(ADP-ribose) polymerase (PARP)
[4] = tested on: T3, DFF45 fusion protein with a six-histidine tag at the NH2-terminus
T3 sequence: T2 sequence

[5] = molecular target: recombinant DFF40 tagged with six histidine at its C-terminus (human) (UniProt O76075); test: cell-based or functional assay
[6] = molecular target: T4, DFF40 (40-kDa subunit of DNA fragmentation factor), native human protein (human, UniProt O76075 1-338); test: co-elution from the Mono Q column (last purification step), SDS-PAGE with Coomassie stain
T4 construct: Native protein purified from HeLa S-100 as part of the DFF heterodimer; also called 40-kDa polypeptide
T4 sequence: T1 sequence
Method: Ammonium sulfate (1 M) was added directly to the SP-Sepharose 0.5 M eluate. After rotating at 4° C. for 1 hr, the sample were centrifuged at 15,000 rpm for 30 min in a Sovall IA-600 rotor. The supernate was directly loaded onto a 100 ml phenyl Sepharose column equilibrated with buffer A containing 1 M ammonium sulfate and 0.5 M NaCl. The column was washed with three bed volumes of buffer A containing 1 M ammonium sulfate and 0.5 M NaCl and the bound material was eluted with two bed volumes of buffer A. […] was added to the phenyl Sepharose eluate to 50% saturation. After stirring at 4° C. for 5 hr, the sample was centrifuged at 15,000 rpm for 15 min in a Sovall JA-600 rotor. The pellet was resuspended in buffer A and loaded onto a Superalex-200 16/60 gel filtration column (Pharmacia) equilibrated with buffer A and eluted with the same buffer. Fractions of 4 ml were collected and assayed for DFF activity. The active fractions from the gel filtration column were pooled and loaded onto a MonoS 10/10 column (Pharmacia) equilibrated with buffer A. The column was washed with 50 ml of buffer A and eluted with a 200 ml 0-0.2 M linear NaCl gradient. […]
DFF activity eluted from a Mono Q column, the last step of the purification, at about 250 mM NaCl. […] No other proteins were detected in fraction containing the peak of DFF activity.

Molecule: caspase-3 (active recombinant)
- cleavage of biotinylated DFF (SDS-PAGE, streptavidin-peroxidase chemiluminescence) [1]: the 40-kDa subunit remained intact
- cleavage of biotinylated DFF (SDS-PAGE, streptavidin-peroxidase chemiluminescence) [2]: Incubation with caspase-3 resulted in the cleavage of the 45-kDa subunit into fragments of molecular masses of 30 kDa and 11 kDa
- rate of cleavage in isolated nuclei (immunoblot) [3]: The same conclusion was obtained when the rate of cleavage of PARP was measured
- cleavage of the fusion protein (SDS-PAGE) [4]: Incubation of this fusion protein with caspase-3 resulted in its cleavage into three fragments of 30 kDa, 18 kDa and 11 kDa at the early time point
- time course of cleavage in isolated nuclei (immunoblot) (lamin B1): the rate of lamin B1 cleavage by caspase-3 remained the same with or without DFF

Molecule: histone H1
- DNase activity of A-DFF40 on purified plasmid DNA [5]: > 10 fold

B1: DFF45 (45-kDa subunit of DNA fragmentation factor), native human protein (other)
chain: T2 sequence
notes: Native protein, purified from HeLa S-100 as part of the DFF heterodimer, or endogenous in 293 and U937 cell extracts; also called 45-kDa polypeptide; endogenous protein
- binding result [6]: binds
